The supplement of paper PMC9112550, “Optimization of the antimicrobial peptide Bac7 by deep mutational scanning” (BMC Biology, 2022)

tested on: Escherichia coli TOP10; test: shrunken log2 fold change of peptide-encoding DNA abundance (4.5 h post-induction vs induction); higher = less antimicrobial activity (less host growth inhibition); conditions: time post-induction: 4.5 h; library: site-saturation at positions 5, 18, 19, 20
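Also: peptides expressed intracellularly from a pBAD plasmid library in pooled LB shake-flask culture, induced with 0.3% L-arabinose, DNA abundance read by NGS, three biological replicates, DESeq2 with apeglm shrinkage.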

How did the “shrunken log2 fold change” value turn out when RRIRLRPPRLPRPRPRPFEEPRP was run?
Its value is 0.127.

For RRIRERPPRLPRPRPRPVFQPRP, which “shrunken log2 fold change” value is on record?
The value was -0.0545.

Which “shrunken log2 fold change” value does the source give for RRIRFRPPRLPRPRPRPIQAPRP here?
Its value is 0.00328.

RRIRDRPPRLPRPRPRPMPQPRP was tested. Which “shrunken log2 fold change” value did it give?
Its value is 0.0354.

RRIRMRPPRLPRPRPRPSKGPRP was tested. Which “shrunken log2 fold change” value did it give?
The value was -0.071.

How did the “shrunken log2 fold change” value turn out when RRIRNRPPRLPRPRPRPVFCPRP was run?
The value was 0.36.

How did the “shrunken log2 fold change” value turn out when RRIRHRPPRLPRPRPRPYKKPRP was run?
The value was -0.0963.

For RRIRCRPPRLPRPRPRPNKNPRP, which “shrunken log2 fold change” value is on record?
The value was -0.344.

Which “shrunken log2 fold change” value does the source give for RRIRTRPPRLPRPRPRPHIKPRP here?
The value was -0.616.

For RRIRHRPPRLPRPRPRPKSIPRP, which “shrunken log2 fold change” value is on record?
The value was -0.136.

RRIRQRPPRLPRPRPRPETWPRP was tested. Which “shrunken log2 fold change” value did it give?
The value was 0.00978.

With RRIRDRPPRLPRPRPRPLDGPRP as the sequence, how does the “shrunken log2 fold change” value read?
Its value is 0.0131.

How did the “shrunken log2 fold change” value turn out when RRIRFRPPRLPRPRPRPNSQPRP was run?
The value was -0.496.

For RRIRCRPPRLPRPRPRPTFSPRP, which “shrunken log2 fold change” value is on record?
The value was -0.187.

RRIRKRPPRLPRPRPRPENAPRP was tested. Which “shrunken log2 fold change” value did it give?
Its value is 0.116.

With RRIRDRPPRLPRPRPRPQEDPRP as the sequence, how does the “shrunken log2 fold change” value read?
The value was 0.399.

With RRIRERPPRLPRPRPRPEIVPRP as the sequence, how does the “shrunken log2 fold change” value read?
The value was 0.00903.

With RRIRPRPPRLPRPRPRPDAPPRP as the sequence, how does the “shrunken log2 fold change” value read?
The value was 0.227.

RRIRCRPPRLPRPRPRPYMLPRP was tested. Which “shrunken log2 fold change” value did it give?
The value was -1.06.

For RRIRARPPRLPRPRPRPPGVPRP, which “shrunken log2 fold change” value is on record?
The value was 0.158.

How did the “shrunken log2 fold change” value turn out when RRIRGRPPRLPRPRPRPGRQPRP was run?
The value was 0.654.

Which “shrunken log2 fold change” value does the source give for RRIRARPPRLPRPRPRPTENPRP here?
Its value is 0.381.

For RRIRGRPPRLPRPRPRPHYDPRP, which “shrunken log2 fold change” value is on record?
The value was -0.0292.

RRIRNRPPRLPRPRPRPVWWPRP was tested. Which “shrunken log2 fold change” value did it give?
Its value is 0.259.

With RRIRLRPPRLPRPRPRPEVFPRP as the sequence, how does the “shrunken log2 fold change” value read?
Its value is 0.0607.

Which “shrunken log2 fold change” value does the source give for RRIRRRPPRLPRPRPRPPEHPRP here?
Its value is 0.14.

Which “shrunken log2 fold change” value does the source give for RRIRCRPPRLPRPRPRPHETPRP here?
Its value is -0.035.

RRIRMRPPRLPRPRPRPWNGPRP was tested. Which “shrunken log2 fold change” value did it give?
The value was -0.0377.

With RRIRDRPPRLPRPRPRPCTSPRP as the sequence, how does the “shrunken log2 fold change” value read?
The value was -0.000687.

With RRIRMRPPRLPRPRPRPNRLPRP as the sequence, how does the “shrunken log2 fold change” value read?
The value was 0.0386.

How did the “shrunken log2 fold change” value turn out when RRIRLRPPRLPRPRPRPMRCPRP was run?
Its value is 0.0565.

RRIRPRPPRLPRPRPRPFKHPRP was tested. Which “shrunken log2 fold change” value did it give?
Its value is 0.0339.

Which “shrunken log2 fold change” value does the source give for RRIRIRPPRLPRPRPRPKMCPRP here?
The value was 0.168.

Which “shrunken log2 fold change” value does the source give for RRIRLRPPRLPRPRPRPRGAPRP here?
Its value is 0.425.

RRIRMRPPRLPRPRPRPENIPRP was tested. Which “shrunken log2 fold change” value did it give?
Its value is 0.0472.

How did the “shrunken log2 fold change” value turn out when RRIRLRPPRLPRPRPRPPKAPRP was run?
The value was 0.025.

Which “shrunken log2 fold change” value does the source give for RRIRKRPPRLPRPRPRPRWAPRP here?
The value was 0.469.

Which “shrunken log2 fold change” value does the source give for RRIRTRPPRLPRPRPRPFHRPRP here?
Its value is -0.469.

For RRIRVRPPRLPRPRPRPMGAPRP, which “shrunken log2 fold change” value is on record?
The value was 0.813.

For RRIRVRPPRLPRPRPRPANHPRP, which “shrunken log2 fold change” value is on record?
Its value is -0.0489.

With RRIRNRPPRLPRPRPRPMNFPRP as the sequence, how does the “shrunken log2 fold change” value read?
Its value is -0.0203.

RRIRGRPPRLPRPRPRPRLFPRP was tested. Which “shrunken log2 fold change” value did it give?
The value was 1.11.

With RRIRGRPPRLPRPRPRPMTLPRP as the sequence, how does the “shrunken log2 fold change” value read?
Its value is 0.509.

For RRIRARPPRLPRPRPRPPPWPRP, which “shrunken log2 fold change” value is on record?
Its value is 1.03.

For RRIRERPPRLPRPRPRPCDEPRP, which “shrunken log2 fold change” value is on record?
Its value is 0.011.

Which “shrunken log2 fold change” value does the source give for RRIRQRPPRLPRPRPRPGTNPRP here?
Its value is -0.0906.

For RRIRYRPPRLPRPRPRPGESPRP, which “shrunken log2 fold change” value is on record?
Its value is 0.224.

How did the “shrunken log2 fold change” value turn out when RRIRIRPPRLPRPRPRPVIFPRP was run?
The value was -0.402.

Which “shrunken log2 fold change” value does the source give for RRIRHRPPRLPRPRPRPMCEPRP here?
Its value is -0.293.

How did the “shrunken log2 fold change” value turn out when RRIRWRPPRLPRPRPRPRKQPRP was run?
The value was -0.0611.

Which “shrunken log2 fold change” value does the source give for RRIRERPPRLPRPRPRPRSLPRP here?
The value was -0.0254.

RRIRMRPPRLPRPRPRPYEVPRP was tested. Which “shrunken log2 fold change” value did it give?
The value was -0.00992.

How did the “shrunken log2 fold change” value turn out when RRIRMRPPRLPRPRPRPWKKPRP was run?
Its value is 0.234.

Which “shrunken log2 fold change” value does the source give for RRIRSRPPRLPRPRPRPRLNPRP here?
Its value is 0.15.

For RRIRVRPPRLPRPRPRPYAAPRP, which “shrunken log2 fold change” value is on record?
Its value is -0.3.

Which “shrunken log2 fold change” value does the source give for RRIRWRPPRLPRPRPRPVFKPRP here?
The value was 0.0598.

Which “shrunken log2 fold change” value does the source give for RRIRQRPPRLPRPRPRPMCGPRP here?
Its value is 0.31.

With RRIRLRPPRLPRPRPRPIAKPRP as the sequence, how does the “shrunken log2 fold change” value read?
Its value is -0.305.

RRIRGRPPRLPRPRPRPRCDPRP was tested. Which “shrunken log2 fold change” value did it give?
The value was 0.629.

RRIRERPPRLPRPRPRPGNIPRP was tested. Which “shrunken log2 fold change” value did it give?
The value was -0.989.

RRIRTRPPRLPRPRPRPWMQPRP was tested. Which “shrunken log2 fold change” value did it give?
The value was -0.0757.

With RRIRNRPPRLPRPRPRPFMLPRP as the sequence, how does the “shrunken log2 fold change” value read?
The value was -1.17.

Which “shrunken log2 fold change” value does the source give for RRIRPRPPRLPRPRPRPFQKPRP here?
The value was -0.163.

How did the “shrunken log2 fold change” value turn out when RRIRQRPPRLPRPRPRPIHEPRP was run?
Its value is -0.0182.

For RRIRVRPPRLPRPRPRPSRWPRP, which “shrunken log2 fold change” value is on record?
The value was 0.278.

Which “shrunken log2 fold change” value does the source give for RRIRCRPPRLPRPRPRPYRYPRP here?
Its value is -0.262.

With RRIRCRPPRLPRPRPRPPLPPRP as the sequence, how does the “shrunken log2 fold change” value read?
Its value is 0.539.

How did the “shrunken log2 fold change” value turn out when RRIRVRPPRLPRPRPRPHVDPRP was run?
Its value is 0.0108.

How did the “shrunken log2 fold change” value turn out when RRIRIRPPRLPRPRPRPYTTPRP was run?
Its value is -0.0313.

RRIRKRPPRLPRPRPRPWSTPRP was tested. Which “shrunken log2 fold change” value did it give?
Its value is 0.0277.

For RRIRSRPPRLPRPRPRPRQWPRP, which “shrunken log2 fold change” value is on record?
The value was 0.69.

For RRIRFRPPRLPRPRPRPCTPPRP, which “shrunken log2 fold change” value is on record?
Its value is -0.158.

Which “shrunken log2 fold change” value does the source give for RRIRGRPPRLPRPRPRPECCPRP here?
Its value is 1.52.

With RRIRSRPPRLPRPRPRPVKPPRP as the sequence, how does the “shrunken log2 fold change” value read?
The value was 0.132.

How did the “shrunken log2 fold change” value turn out when RRIRWRPPRLPRPRPRPGVNPRP was run?
Its value is 0.0981.

For RRIRERPPRLPRPRPRPVIWPRP, which “shrunken log2 fold change” value is on record?
The value was 0.254.

For RRIRCRPPRLPRPRPRPESRPRP, which “shrunken log2 fold change” value is on record?
The value was 0.276.

Which “shrunken log2 fold change” value does the source give for RRIRRRPPRLPRPRPRPHEVPRP here?
The value was 0.0299.

Which “shrunken log2 fold change” value does the source give for RRIRLRPPRLPRPRPRPGHEPRP here?
Its value is -0.0844.

For RRIRKRPPRLPRPRPRPPMLPRP, which “shrunken log2 fold change” value is on record?
The value was 0.203.

RRIRVRPPRLPRPRPRPDARPRP was tested. Which “shrunken log2 fold change” value did it give?
Its value is 0.262.

For RRIRKRPPRLPRPRPRPPWDPRP, which “shrunken log2 fold change” value is on record?
The value was 0.68.

For RRIRARPPRLPRPRPRPHFTPRP, which “shrunken log2 fold change” value is on record?
The value was 0.345.

RRIRDRPPRLPRPRPRPMYVPRP was tested. Which “shrunken log2 fold change” value did it give?
The value was -0.243.

Which “shrunken log2 fold change” value does the source give for RRIRIRPPRLPRPRPRPTLAPRP here?
The value was 0.236.

Which “shrunken log2 fold change” value does the source give for RRIRLRPPRLPRPRPRPYIGPRP here?
The value was -0.129.

Which “shrunken log2 fold change” value does the source give for RRIRFRPPRLPRPRPRPRCQPRP here?
The value was 0.24.

For RRIRKRPPRLPRPRPRPKLGPRP, which “shrunken log2 fold change” value is on record?
Its value is 0.0679.

For RRIRYRPPRLPRPRPRPRQSPRP, which “shrunken log2 fold change” value is on record?
The value was -0.0113.

RRIRARPPRLPRPRPRPNNKPRP was tested. Which “shrunken log2 fold change” value did it give?
Its value is -0.29.

How did the “shrunken log2 fold change” value turn out when RRIRIRPPRLPRPRPRPNCAPRP was run?
The value was -0.187.
